The results in this text go back to article PMC10334806 (Proceedings of the National Academy of Sciences of the …, 2023).

The target of this experiment is T1, GST-MP (MONOPTEROS / AUXIN RESPONSE FACTOR5) (Arabidopsis thaliana, UniProt P93024 1-902).
T1 sequence (looked up): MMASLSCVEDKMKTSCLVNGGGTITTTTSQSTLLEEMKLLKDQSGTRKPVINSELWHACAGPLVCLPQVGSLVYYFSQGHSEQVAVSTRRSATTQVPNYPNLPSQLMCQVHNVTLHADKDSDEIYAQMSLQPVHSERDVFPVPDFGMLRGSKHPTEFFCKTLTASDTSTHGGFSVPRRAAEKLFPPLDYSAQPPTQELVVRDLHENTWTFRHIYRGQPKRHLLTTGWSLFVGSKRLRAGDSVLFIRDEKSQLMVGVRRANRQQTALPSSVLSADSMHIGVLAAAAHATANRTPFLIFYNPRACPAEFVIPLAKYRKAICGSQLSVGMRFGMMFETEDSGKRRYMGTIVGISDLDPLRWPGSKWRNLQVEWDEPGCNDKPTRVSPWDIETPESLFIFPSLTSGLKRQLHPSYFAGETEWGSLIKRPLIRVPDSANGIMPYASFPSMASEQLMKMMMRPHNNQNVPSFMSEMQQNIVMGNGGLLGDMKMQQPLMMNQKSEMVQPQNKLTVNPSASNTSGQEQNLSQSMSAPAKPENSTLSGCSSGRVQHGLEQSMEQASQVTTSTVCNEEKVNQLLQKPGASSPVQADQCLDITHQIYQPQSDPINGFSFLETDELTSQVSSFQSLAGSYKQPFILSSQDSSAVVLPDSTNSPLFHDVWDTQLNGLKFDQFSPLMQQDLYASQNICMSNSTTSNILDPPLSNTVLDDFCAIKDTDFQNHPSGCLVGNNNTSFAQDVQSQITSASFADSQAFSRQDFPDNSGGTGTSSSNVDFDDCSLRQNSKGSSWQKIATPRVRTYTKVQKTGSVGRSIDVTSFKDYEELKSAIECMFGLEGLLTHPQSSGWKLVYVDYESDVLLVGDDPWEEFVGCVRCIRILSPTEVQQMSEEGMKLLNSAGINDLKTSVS
Description: pull-down.

B1: 6xHis-MBP-DRNL (DORNROSCHEN-LIKE) (natural protein)
chain: not shown
With B1, the binding result is listed as “binds”.

B2: 6xHis-MBP-DRN (residues 1 to 200, protein-protein interaction domain) (domain or fragment)
chain: not shown
In the case of B2, the binding result is given as “binds”.
